Read-outs that look alike come from different tables or passages of the source.
Experiments:
Human TIGIT-His [1] = biological target: T1, Human TIGIT-His (human, UniProt Q495A1 22-141, biotinylated in the ForteBio Fab assay); assay: MSD-SET, monovalent (Fab or mAb titrated, not said which)
T1 construct: bought (Creative Biomart); also called Biotinylated Human TIGIT HIS; TIGIT-His monomer; not shown: His tag
T1 sequence (looked up): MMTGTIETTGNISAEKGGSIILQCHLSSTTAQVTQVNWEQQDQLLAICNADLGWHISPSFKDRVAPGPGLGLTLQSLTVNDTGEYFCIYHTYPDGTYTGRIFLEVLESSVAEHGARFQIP
Procedure: (§1) Briefly, solution equilibrium titrations (SET) were performed in PBS+0.1% IgG-Free BSA (PBSF) with antigen (TIGIT-His monomer) held constant at 10-100 pM and incubated with 3- to 5-fold serial dilutions of Fab or mAbs starting at 10 pM-10 nM. Antibodies (20 nM in PBS) were coated onto standard bind MSD-ECL plates overnight at 4° C. or at room temperature for 30 min. Plates were then blocked by BSA for 30 min with shaking at 700 rpm, followed by three washes with wash buffer (PBSF+0.05% Tween 20). SET samples were applied and incubated on the plates for 150s with shaking at 700 rpm followed by one wash. Antigen captured on a plate was detected with 250 ng/mL sulfotag-labeled streptavidin in PBSF by incubation on the plate for 3 min. The plates were washed three times with wash buffer and then read on the MSD Sector Imager 2400 instrument using 1× Read Buffer T with surfactant. The percent free antigen was plotted as a function of titrated antibody in Prism and fit to a quadratic equation to extract the KD. To improve throughput, liquid handling robots were used throughout MSD-SET experiments, including SET sample preparation.

[2] = biological target: T2, human TIGIT expressed on cells (human, UniProt Q495A1 22-244); assay: flow cytometry, competition with CD155-His (5 ug/ml) on Jurkat-hTIGIT
T2 construct: whole, on cells; on Jurkat E6.1 cells transduced with human TIGIT, on Promega TIGIT Effector cells or on human primary T cells; the assay field says which; also called hTIGIT; Jurkat-hTIGIT
T2 sequence (looked up): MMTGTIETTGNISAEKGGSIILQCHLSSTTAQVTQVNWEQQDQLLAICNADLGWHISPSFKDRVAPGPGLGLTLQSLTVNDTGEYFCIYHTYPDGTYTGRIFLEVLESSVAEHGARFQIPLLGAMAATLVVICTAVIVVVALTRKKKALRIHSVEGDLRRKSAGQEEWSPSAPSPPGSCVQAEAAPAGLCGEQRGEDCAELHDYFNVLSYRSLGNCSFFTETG

Human TIGIT-His [3] = biological target: T1, Human TIGIT-His; assay: MSD-SET, monovalent (Fab or mAb titrated, not said which); remark: listed apart in the source
Procedure: as §1

[4] = biological target: T2, human TIGIT expressed on cells; assay: cell-based or functional assay
Human TIGIT-Fc = biological target: T3, Human TIGIT-Fc (human, UniProt Q495A1 22-141); assay: ForteBio BLI, IgG KD, avid
T3 construct: bought (Creative Biomart); also called TIGIT-Fc antigen; TIGIT-Fc fusion antigen; not shown: Fc part
T3 sequence (looked up): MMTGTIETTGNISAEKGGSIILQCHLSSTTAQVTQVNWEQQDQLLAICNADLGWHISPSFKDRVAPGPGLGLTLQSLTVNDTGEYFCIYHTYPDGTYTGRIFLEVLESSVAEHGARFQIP
Procedure: Briefly, ForteBio affinity measurements were performed by loading IgGs on-line onto AHQ sensors. Sensors were equilibrated off-line in assay buffer for 30 min and then monitored on-line for 60 seconds for baseline establishment. Sensors with loaded IgGs were exposed to 100 nM antigen (human TIGIT-Fc, human TIGIT-His or cyno TIGIT-Fc) for 5 minutes, afterwards they were transferred to assay buffer for 5 min for off-rate measurement. Kinetics were analyzed using the 1:1 binding model.

[5] = biological target: T4, mouse TIGIT expressed on cells (mouse, UniProt P86176 29-249); assay: flow cytometry, 100 nM Ab, Jurkat-mTIGIT vs untransfected
T4 construct: whole, on cells; on Jurkat cells engineered to express mouse TIGIT; also called mTIGIT; Jurkat-mTIGIT
T4 sequence (looked up): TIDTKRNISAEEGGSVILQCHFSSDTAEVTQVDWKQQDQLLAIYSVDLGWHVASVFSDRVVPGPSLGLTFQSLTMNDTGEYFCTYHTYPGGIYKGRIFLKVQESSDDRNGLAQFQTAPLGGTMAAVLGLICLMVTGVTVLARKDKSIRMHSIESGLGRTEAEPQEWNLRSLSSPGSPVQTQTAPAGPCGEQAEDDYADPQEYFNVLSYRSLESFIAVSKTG
Procedure: (§2) Antibodies were incubated with the cells for 20 min at 4° C. in FACS buffer. […] Geometric mean fluorecence intensity was analysed using LSR BD Fortessa. Cell binding was recorded as the median florescence intensity of PE on the transfected line compared to the un-transfected line for each antibody (Table 3).

[6] = biological target: T2, human TIGIT expressed on cells; assay: flow cytometry, 100 nM Ab, Jurkat-hTIGIT vs untransfected
Procedure: as §2

[7] = biological target: T2, human TIGIT expressed on cells; assay: cell-based or functional assay; remark: listed apart in the source
[8] = biological target: T2, human TIGIT expressed on cells; assay: cell-based or functional assay; remark: listed apart in the source
[9] = biological target: T2, human TIGIT expressed on cells; assay: flow cytometry, primary CD8+ T cells of cancer patients' PBMC, MFI
Procedure: Cells were distributed at 1×10^5 cells per well. […] Then, cells were washed and incubated with the following antibodies and life viability dye (LVD) mix: anti-CD4-PercP-Cy5.5 (clone A161A1, BioLegend 357414); anti-CD8-BV510 (clone SK1, BD Bioscience 563919) and LVD efluor 520 (eBioscience 65-0867-14). Cells were washed and fixed and surface staining was quantified using BD LSR Fortessa. Flow cytometry data was analysed using FlowJo V10.1. TIGIT MFI on gated LVD-TIGIT+CD8+ cells was used to calculate EC50 values.

[10] = biological target: T2, human TIGIT expressed on cells; assay: flow cytometry, competition with CD155-His (15 ug/ml) on Jurkat-hTIGIT
[11] = biological target: T2, human TIGIT expressed on cells; assay: flow cytometry, primary CD8+ T cells of healthy human PBMC, MFI
Procedure: Isolated human PBMCs from healthy volunteers were analysed for binding by antagonist anti-TIGIT antibodies. Cells were distributed at 1×10⁵ cells per well. Cells were incubated with anti-CD16 (Clone 3G8, BioLegend 302002), CD32 (Clone FLI8.26, BD Bioscience 557333) and CD64 (BD Bioscience 555525) at room temperature for 10 min, and the indicated anti-human TIGIT antibody clones were directly added at a final concentration of 8; 4; 2; 1; 0.5; 0.25; 0.125; 0.062; 0.031; 0.016; 8×10⁻³ and 4×10⁻³ nM in FACS buffer and incubated for 20 min at 4° C. […] Then, cells were washed and incubated with the following antibodies and LVD mix: anti-CD4-PercP-Cy5.5 (clone A161A1, BioLegend 357414); anti-CD8-BV510 (clone SK1, BD Bioscience 563919) and LVD efluor 660 (eBioscience 65-0864-18).
The EC50 values for binding to CD8+ human primary T cells were calculated using the MFI signal on living TIGIT+CD8+ T cells.

[12] = biological target: T2, human TIGIT expressed on cells; assay: flow cytometry on Jurkat-hTIGIT
Procedure: Antibodies were incubated with the cells for 20 min at 4° C. in FACS buffer. […] Fluorescence intensity was analysed using LSR BD Fortessa and cell binding was recorded as the median fluorescence intensity of PE in cells expressing TIGIT at their surface.
The half-maximal concentration of binding (EC50) to Jurkat-hTIGIT was calculated using a four-variable curve-fit equation in Prism.

[13] = biological target: T2, human TIGIT expressed on cells; assay: cell-based or functional assay; remark: listed apart in the source
[14] = biological target: T5, recombinant human TIGIT protein (construct not stated) (human, UniProt Q495A1 22-141, limits assumed); assay: Biacore T200, IgG captured by anti-human Fc, antigen in solution, 1:1 kinetic model
T5 construct: also called hTIGIT (Creative Biomart); recombinant TIGIT protein
T5 sequence (looked up): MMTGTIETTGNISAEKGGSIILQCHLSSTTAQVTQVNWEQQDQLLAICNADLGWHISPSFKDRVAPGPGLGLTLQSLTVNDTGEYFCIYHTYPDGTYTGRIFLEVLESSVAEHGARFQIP
Procedure: Biosensor analysis was conducted at 25° C. in a HBS-EP buffer system (10 mM HEPES pH 7.3, 150 mM NaCl, 3 mM EDTA, 0.05% Tween20) using Biacore T200 technology, CMS sensor chip (run at Novalix, France). The sample hotel was maintained at 8° C. Goat anti-human IgG capture antibody (Fcγ fragment specific, Jackson ImmunoResearch Laboratories) was immobilized (10000 RU) to both flow cells of the sensor chip using standard amine coupling chemistry. This surface type provided a format for reproducibly capturing fresh analysis antibody after each regeneration step. Flow cell 2 was used to analyse captured antibody while flow cell 1 was used as a reference flow cell. […] Two blank (buffer) injections also were run and used to assess and subtract system artefacts. The association (300 s) and dissociation (600 s) phases for all antigen concentrations were performed at a flow rate of 30 uL/min. The surface was regenerated with three sequential injections (15 s, 15 s and 60 s) of 10 mM glycine-HCl, pH 1.5. The obtained sensorgrams were fitted globally to a 1:1 model (assuming the same kinetic values for all applied concentrations).

Binder	Kd (Human TIGIT-His [1]) [nM]	IC50 [2] [nM]	Kd (Human TIGIT-His [3]) [nM]	Induction over Isotype control (fold change), luciferase, Jurkat-hTIGIT + CHO-TCR-CD155, 133 nM [4] [fold]	Kd (Human TIGIT-Fc) [nM]	FON (Fold Over Negative) [5] [fold]	FON (Fold Over Negative) [6] [fold]	increase of IFNg secretion over isotype control, human primary CD8+ T cells + CHO-TCR-CD155 [7] [fold]	other results
anti-TIGIT antibody clone 29513 (IgG) (antibody, V domains shown) VH: QVQLVQSGAEVKKPGSSVKVSCKASGGTFQNYAISWVRQAPGQGLEWMGVIVPIFGTANYAQKFQGRVTVTADESTSTAYMELSSLRSEDTAVYYCARLHLGQKAYYGMDVWGQGTTVTVSS VL: DIQMTQSPSSLSASVGDRVTITCRASQSISSYLNWYQQKPGKAPKLLIYAASSLQSGVPSRFSGSGSGTDFTLTISSLQPEDFATYYCQQRYVFPPTFGGGTKVEIK	0.025	0.094	0.025	3.26	0.392	406	156	3.2	
31C6 (MEB125.31C6.A1.205 VH4/VL1; comparative anti-TIGIT antibody, human IgG1) (antibody, V domains shown, from WO2016/028656; made in HEK cells as human IgG1; also called 3106 (as the text prints it)) VH: EVQLVQSGAEVKKPGASVKVSCKASGYTFSSYVMHWVRQAPGQGLEWIGYIDPYNDGAKYAQKFQGRVTLTSDKSTSTVYMELSSLRSEDTAVYYCARGGPYGWYFDVWGQGTTVTVSS VL: DIQMTQSPSSLSASVGDRVTITCRASEHIYSYLSWYQQKPGKAPKLLIYNAKTLAEGVPSRFSGSGSGTDFTLTISSLQPEDFATYYCQHHFGSPLTFGQGTRLEIK									EC50 (nM), IFNg, human primary CD8+ T cells [8]: 0.3 nM; Fold change of EC50 over EC50 of best clone (31282_wu) [8]: 2.3 fold; Induction over isotype control (fold change), IFNg, human primary CD8+ T cells + CD155 aAPC/CHO-K1 [8]: 1.6 fold; EC50 [9]: 0.18 nM; Fold change of EC50 over EC50 of best clone (31282) [9]: 1.5 fold; Fold change of IC50 over IC50 of best clone (31282_up) [10]: 1.7 fold; IC50 [10]: 0.07 nM; EC50 [11]: 0.39 nM; Fold change of EC50 over EC50 of best clone (31282_wu) [11]: 2 fold; EC50 [12]: 0.13 nM; Fold change of EC50 over EC50 of best clone (31282_wu) [12]: 1.2 fold; EC50 (nM), luciferase, Jurkat-hTIGIT [13]: 5.3 nM; Fold change of EC50 over EC50 of best clone (31282_up) [13]: 1.6 fold; Induction over Isotype control (fold change), luciferase, Jurkat-hTIGIT + CD155 aAPC/CHO-K1 [13]: 6.7 fold; Kd [14]: 0.067 nM; koff [14]: 0.000209 s⁻¹
anti-TIGIT antibody clone 29499 (IgG) (antibody, V domains shown) VH: QLQLQESGPGLVKPSETLSLTCTVSGGSISSSRYYWAWIRQPPGKGLEWIGSIGTSGSTYYNPSLKSRVTISVDTSKNQFSLKLSSVTATDTAVYYCAIEGANFRDFGYVAFDIWGQGTMVTVSS VL: EIVMTQSPATLSVSPGERATLSCRASQSVSSNLAWYQQKPGQAPRLLIYGASTRATGIPARFSGSGSGTEFTLTISSLQSEDFAVYYCQQSPPWPRTFGGGTKVEIK	0.019	0.103	0.019	3.68	0.319	541	164	5.2	
anti-TIGIT antibody clone 29523 (IgG) (antibody, V domains shown) VH: EVQLVESGGGVVQPGRSLRLSCAASGFTFGSYYMHWVRQAPGKGLEWVAVIWPDGSNKLYADSVKGRFTISRDNSKNTLYLQMNSLRAEDTALYYCAKPVPKSRALDVWGQGTMVTVSS VL: DIQLTQSPSSVSASVGDRVTITCRASQGISSWLAWYQQKPGKAPKLLIYGASSLQSGVPSRFSGSGSGTDFTLTISSLQPEDFATYYCQQAFYLPWTFGGGTKVEIK	1.7	0.079	1.7	2.4	0.531	502	150		

— patent US20200407445A1 (ITEOS THERAPEUTICS, published 2020)
